Measured values published in the supplement of paper PMC10724198.
± gives the standard deviation of the averaged measurements.

How the values were obtained:
[1] = tested on: Saccharomyces cerevisiae; test: protein stability index of tFT-peptide fusion (C-terminal peptide) (PSI (0-1 scale)); higher = more stable (slower turnover)
Method: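 MPS profiling in S. cerevisiae of the tFT-X12 degron library: putative degron peptides plus stable controls, 12 aa, fused to the C-terminus of a sfGFP-mCherry timer. Cells are FACS-sorted into 8 mCherry/sfGFP bins and deep-sequenced. PSI runs from 0 (unstable) to 1 (stable). Backgrounds are wild type, das1Δ and doa10Δ at 30 °C, and wild type, das1Δ, cdc34-1 and cdc53-1 at 37 °C; 2-3 technical replicates each.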

[2] = tested on: Saccharomyces cerevisiae; test: as above; conditions: genetic background: wild type; temperature: 30 C
[3] = genetic background: cdc34-1, temperature: 37 C
[4] = genetic background: cdc53-1, temperature: 37 C
[5] = genetic background: das1 deletion, temperature: 30 C
[6] = genetic background: das1 deletion, temperature: 37 C
[7] = genetic background: doa10 deletion, temperature: 30 C
[8] = genetic background: wild type, temperature: 30 C
[9] = genetic background: wild type, temperature: 37 C
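Further: PSI is a weighted mean of sequencing reads over stability bins, variants kept only with over 10 reads, mCherry proximal and sfGFP distal, peptide attached via GGGS linker.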

Sequence	protein stability index [2]	also measured
PPPPPSARSPFR		protein stability index [1, 3]: 0.649 ± 0.043; protein stability index [1, 4]: 0.726 ± 0.012; protein stability index [1, 5]: 0.633 ± 0.027; protein stability index [1, 6]: 0.7402 ± 0.0063; protein stability index [1, 7]: 0.603 ± 0.03; protein stability index [1, 8]: 0.602 ± 0.0097; protein stability index [1, 9]: 0.695 ± 0.004
RVIESRWFNRLC		protein stability index [1, 3]: 0.587 ± 0.033; protein stability index [1, 4]: 0.72 ± 0.015; protein stability index [1, 5]: 0.656 ± 0.025; protein stability index [1, 6]: 0.7405 ± 0.0048; protein stability index [1, 7]: 0.0884 ± 0.011; protein stability index [1, 8]: 0.121 ± 0.019; protein stability index [1, 9]: 0.229 ± 0.018
TFCVLLQFCVLV		protein stability index [1, 3]: 0.365 ± 0.039; protein stability index [1, 4]: 0.398 ± 0.017; protein stability index [1, 5]: 0.308 ± 0.028; protein stability index [1, 6]: 0.426 ± 0.02; protein stability index [1, 7]: 0.3058 ± 0.0007; protein stability index [1, 8]: 0.315 ± 0.012; protein stability index [1, 9]: 0.411 ± 0.0012
WTFVRTPERSEI	0.719 ± 0.0089	
WTIVEALPRGVV	0.679 ± 0.046	
WTTWAYFSDPTS	0.621 ± 0.021	
WVGCALEQGGAV	0.71 ± 0.0019	
WVGPGGAVENKV	0.7013 ± 0.0032	
WVKTLEKEDHVI	0.759 ± 0.21	
WVPLGVVGWFGG	0.659 ± 0.038	
WVRDDEYTLIFL	0.712 ± 0.035	
WVTGASRLVGRE	0.766 ± 0.13	
WVWAIDYEGLLW	0.699 ± 0.054	
WVWGVLGAVWFG	0.632 ± 0.0091	
WYTPDCLHCGPA	0.688 ± 0.013	
YAAGGPLLLCNQ	0.66 ± 0.021	
YAGGLWEGYRHW	0.636 ± 0.063	
YCALVSVGVVGG	0.542 ± 0.0036	
YCFRFGLLIFGD	0.548 ± 0.01	
YCGGRGGGWEIG	0.682 ± 0.027	
YCNLSFKINREW	0.696 ± 0.12	
YCRQVSYERPTK	0.743 ± 0.077	
YEACQTGASICR	0.7125 ± 0.0013	

Sequence	protein stability index [2]	also measured
YEGARAPAGGEK	0.689 ± 0.034	
YERKGRQVGGRT	0.592 ± 0.048	
YFAASFMSSSGI	0.76 ± 0.078	
YFALPPSAHRHQ	0.693 ± 0.059	
YFPSSTLPPPVP	0.675 ± 0.029	
YFTARLLFFGYI	0.725 ± 0.1	
YGGFLHALAMGG	0.677 ± 0.0014	
YGLAGFLWGCGE	0.799 ± 0.051	
YGRRPGSRGDEH	0.699 ± 0.025	
YGSRWRPYLGFR	0.669 ± 0.028	
YGTLCPLNGCGI	0.633 ± 0.068	
YGWGVWFIGLGG	0.794 ± 0.095	
YIDLVEGECNKK	0.685 ± 0.046	
YILSSFWTEVDS	0.703 ± 0.093	
YKTCKEKKITNR	0.704 ± 0.014	
YLCRLHLGGLSS	0.602 ± 0.0075	
YLEDRGTSGSVQ	0.676 ± 0.054	
YLSRIFPSLLFL	0.6 ± 0.03	
YLSSTVVRSMLF	0.644 ± 0.014	
YLVHEIGDMTYM	0.739 ± 0.079	
YLVSYLSLFLSF	0.504 ± 0.029	
YNGNSHQTHRHP	0.74 ± 0.022	
YNGVGGLKPEPC	0.658 ± 0.049	

Sequence	protein stability index [2]	also measured
YPKGKHSQDSHV	0.656 ± 0.039	
YPLLPSERDVKA	0.728 ± 0.023	
YPPPPPSPPSTV	0.722 ± 0.027	
YPRNPSLSTSAS	0.63 ± 0.16	
YPRPLSLSFLSL	0.73 ± 0.048	
YPVLFLRSAPCK	0.584 ± 0.031	
YQCESDLFLVGV	0.642 ± 0.041	
YQCGRRVGSACD	0.645 ± 0.023	
YQCVQNNKGRSR	0.67 ± 0.024	
YQLRRGDSSLTE	0.677 ± 0.085	
YRDTVYKVRYSN	0.537 ± 0.015	
YRERSTIKITGN	0.671 ± 0.054	
YRGNLVTDGYGA	0.685 ± 0.019	
YRPFQAPPLVLF	0.6379 ± 0.0026	
YRPGGDRMTGFV	0.713 ± 0.065	
YRRGLGEYRTRS	0.688 ± 0.059	
YRSEEFSGESGW	0.769 ± 0.11	
YRTPRSRHLDSP	0.6938 ± 0.0068	
YRVGCCCFFALT	0.618 ± 0.016	
YRVSWSFLGCFQ	0.62 ± 0.071	
YSDFLICGIGSY	0.775 ± 0.037	
YSDHFFQICGSF	0.726 ± 0.0065	
YSGNPGVRGFHG	0.69 ± 0.073	

Sequence	protein stability index [2]	also measured
YSGSKGVWTRWS	0.687 ± 0.02	
YSGSYIEPREIR	0.626 ± 0.087	
YSSGILPLEMIA	0.606 ± 0.0092	
YSTFPPRIPRPP	0.524 ± 0.011	
YTESQVCLLSAY	0.509 ± 0.0088	
YTPALFLPVRPA	0.715 ± 0.06	
YTQVSSRGINID	0.734 ± 0.029	
YTRILRKKLINK	0.711 ± 0.11	
YTSRLGRGILHV	0.671 ± 0.031	
YVEGSWSSPRCR	0.675 ± 0.12	
YVKEEEKKKESK	0.681 ± 0.079	
YVRLSTLCGSAY	0.58 ± 0.036	
YVSNKMHGSLLS	0.691 ± 0.03	
YVTITLGLASPT	0.666 ± 0.026	
YVVPLGIPPFKD	0.6591 ± 0.00099	
YVWCINSARLVG	0.587 ± 0.01	
YWSRIFEAATIA	0.5436 ± 0.0024	
YWSTNGRCLMVL	0.581 ± 0.017	
YYAMGFEKSISS	0.682 ± 0.031	
YYDWPGQRFSEE	0.67 ± 0.035	
YYRKATFSPMVQ	0.684 ± 0.072	
YYSTPLARSRSP	0.831 ± 0.21	
